# Experimental data reported in the Immune Epitope Database (IEDB).
# What was measured:
# [1] = target: HLA-A*01:01; experiment: IEDB peptide-MHC binding, purified MHC/competitive/fluorescence; filed as Kd, often an IC50 or EC50 that approximates it; ≥ and ≤ were set here for values at or beyond the usual limits of such assays; settings: source organism: Mycobacterium tuberculosis str. Haarlem
# [2] = target: HLA-B*15:01; experiment: IEDB peptide-MHC binding, purified MHC/direct/fluorescence; filed as Kd, often an IC50 or EC50 that approximates it; ≥ and ≤ were set here for values at or beyond the usual limits of such assays
# [3] = target: HLA-B*58:01; experiment: as above
# [4] = target: HLA-B*48:01; experiment: as above
# [5] = target: HLA-A*31:01; experiment: as above
# [6] = target: HLA-B*57:01; experiment: as above
# [7] = target: HLA-A*02:01; experiment: as above
# [8] = target: HLA-B*15:17; experiment: as above
# [9] = target: HLA-A*03:01; experiment: as above
# [10] = target: HLA-A*11:01; experiment: as above
# [11] = target: HLA-B*27:05; experiment: as above
# [12] = target: HLA-B*18:01; experiment: as above
# [13] = target: HLA-B*46:01; experiment: as above
# [14] = target: HLA-B*38:01; experiment: as above
# [15] = target: HLA-A*69:01; experiment: as above
# [16] = target: HLA-B*40:01; experiment: as above
# [17] = target: HLA-B*51:01; experiment: as above
# [18] = target: HLA-A*26:01; experiment: IEDB peptide-MHC binding, purified MHC/competitive/fluorescence; filed as Kd, often an IC50 or EC50 that approximates it; ≥ and ≤ were set here for values at or beyond the usual limits of such assays; settings: source organism: Vibrio vulnificus YJ016
# [19] = target: HLA-A*02:01; experiment: as above; settings: source organism: Vibrio vulnificus YJ016
# [20] = target: HLA-A*30:01; experiment: as above; settings: source organism: Vibrio vulnificus YJ016
# [21] = target: HLA-A*69:01; experiment: as above; settings: source organism: Vibrio vulnificus YJ016
# [22] = target: HLA-B*07:02; experiment: IEDB peptide-MHC binding, purified MHC/direct/fluorescence; filed as Kd, often an IC50 or EC50 that approximates it; ≥ and ≤ were set here for values at or beyond the usual limits of such assays; settings: source organism: Vibrio vulnificus YJ016
# [23] = target: HLA-A*01:01; experiment: as above
# [24] = target: HLA-B*39:01; experiment: as above
# [25] = target: HLA-B*15:01; experiment: IEDB peptide-MHC binding, purified MHC/competitive/fluorescence; filed as Kd, often an IC50 or EC50 that approximates it; ≥ and ≤ were set here for values at or beyond the usual limits of such assays; settings: source organism: Vibrio parahaemolyticus RIMD 2210633
# [26] = target: HLA-B*15:17; experiment: as above; settings: source organism: Vibrio parahaemolyticus RIMD 2210633
# [27] = target: HLA-A*03:01; experiment: as above; settings: source organism: Vibrio parahaemolyticus RIMD 2210633
# [28] = target: HLA-A*26:01; experiment: IEDB peptide-MHC binding, purified MHC/direct/fluorescence; filed as Kd, often an IC50 or EC50 that approximates it; ≥ and ≤ were set here for values at or beyond the usual limits of such assays; settings: source organism: Vibrio parahaemolyticus AQ3810
# [29] = target: HLA-B*08:02; experiment: as above; settings: source organism: Vibrio parahaemolyticus AQ3810
# [30] = source organism: Mycobacterium tuberculosis
# [31] = source organism: Vibrio vulnificus YJ016
# [32] = source organism: Vibrio parahaemolyticus
# [33] = source organism: Vibrio parahaemolyticus AQ3810
sequence,measurement,setting,value
GPAGYTAAL,Kd,[1],≥ 20 µM
same,Kd,[2]; [30],≥ 20 µM
same,Kd,[3]; [30],≥ 20 µM
same,Kd,[4]; [30],≥ 20 µM
same,Kd,[5]; [30],≥ 20 µM
same,Kd,[6]; [30],≥ 20 µM
same,Kd,[7]; [30],≥ 20 µM
same,Kd,[8]; [30],≥ 20 µM
same,Kd,[9]; [30],≥ 20 µM
same,Kd,[10]; [30],≥ 20 µM
same,Kd,[11]; [30],≥ 20 µM
same,Kd,[12]; [30],≥ 20 µM
same,Kd,[13]; [30],≥ 20 µM
same,Kd,[14]; source organism: Mycobacterium tuberculosis str. Haarlem,≥ 20 µM
same,Kd,[15]; [30],≥ 20 µM
same,Kd,[16]; [30],≥ 20 µM
same,Kd,[17]; [30],≥ 20 µM
IVAQGIAAL,Kd,[18],≥ 20 µM
same,Kd,[19],0.0181 µM
same,Kd,[20],≥ 20 µM
same,Kd,[21],0.0077 µM
same,Kd,[2]; [31],0.048 µM
same,Kd,[3]; [31],≥ 20 µM
same,Kd,[4]; [31],≥ 20 µM
same,Kd,[5]; [31],≥ 20 µM
same,Kd,[6]; [31],≥ 20 µM
same,Kd,[22],0.086 µM
same,Kd,[8]; [31],0.0475 µM
same,Kd,[9]; [31],≥ 20 µM
same,Kd,[10]; [31],≥ 20 µM
same,Kd,[11]; [31],≥ 20 µM
same,Kd,[12]; [31],≥ 20 µM
same,Kd,[23]; [31],≥ 20 µM
same,Kd,[13]; [31],9 µM
same,Kd,[14]; [31],≥ 20 µM
same,Kd,[16]; [31],≥ 20 µM
same,Kd,[17]; [31],≥ 20 µM
same,Kd,[24]; [31],0.22 µM
RSTLANGWY,Kd,[25],0.0942 µM
same,Kd,[26],0.0012 µM
same,Kd,[27],1.48 µM
same,Kd,[3]; [32],0.059 µM
same,Kd,[4]; [32],≥ 20 µM
same,Kd,[5]; [32],≥ 20 µM
same,Kd,[6]; [32],0.268 µM
same,Kd,[28],0.59 µM
same,Kd,[7]; [32],≥ 20 µM
same,Kd,[29],≥ 20 µM
same,Kd,[10]; [32],≥ 20 µM
same,Kd,[11]; [32],≥ 20 µM
same,Kd,[12]; [32],≥ 20 µM
same,Kd,[23]; [32],0.274 µM
same,Kd,[13]; [32],≥ 20 µM
same,Kd,[14]; [33],≥ 20 µM
same,Kd,[15]; [32],≥ 20 µM
same,Kd,[16]; [32],≥ 20 µM
same,Kd,[24]; [33],≥ 20 µM
